Measurements from the supplement of paper PMC6379048.

Columns and labels:
Assay in all cases: EC50 of free RNA motif oligo competing protein binding to immobilised probe
RBM14 = target: T1, RBM14 (UniProt Q96PK6)
T1 sequence: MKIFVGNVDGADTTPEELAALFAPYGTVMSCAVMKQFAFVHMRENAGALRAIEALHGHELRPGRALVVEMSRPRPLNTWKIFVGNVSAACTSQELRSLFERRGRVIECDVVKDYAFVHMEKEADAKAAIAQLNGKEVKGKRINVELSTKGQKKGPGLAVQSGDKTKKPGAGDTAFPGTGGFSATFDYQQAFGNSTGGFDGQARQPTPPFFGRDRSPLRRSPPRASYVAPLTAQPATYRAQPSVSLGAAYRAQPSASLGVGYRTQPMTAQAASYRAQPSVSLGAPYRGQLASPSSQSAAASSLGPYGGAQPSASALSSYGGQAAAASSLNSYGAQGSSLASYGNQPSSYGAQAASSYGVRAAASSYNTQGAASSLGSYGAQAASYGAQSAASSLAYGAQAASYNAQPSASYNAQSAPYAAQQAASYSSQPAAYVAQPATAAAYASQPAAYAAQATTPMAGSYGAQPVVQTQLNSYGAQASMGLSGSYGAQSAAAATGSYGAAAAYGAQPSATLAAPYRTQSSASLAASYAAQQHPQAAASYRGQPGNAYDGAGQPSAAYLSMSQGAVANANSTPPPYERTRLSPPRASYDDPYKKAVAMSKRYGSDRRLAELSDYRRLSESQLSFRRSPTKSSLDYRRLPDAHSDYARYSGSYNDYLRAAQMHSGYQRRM
Outline: (§1)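 To obtain EC50, data were fitted with a four-parameter log-logistic model; Kd was then EC50 multiplied by a protein-dependent depletion factor. Beforehand, free RNA oligos (0 nM to 30 μM) were pre-incubated with HEK293-FT lysate (2.5 mg protein/well) for 1 h at 4°C. The lysate then spent 30 min at 4°C with the same 5′-amino-C6 oligos coupled to NHS-Sepharose beads, and bound proteins were quantified by label-free LC-MS/MS, normalised to the control.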

SRRM2 = SRRM2 (UniProt Q9UQ35)
Outline: as §1

CDKN2AIP = target: T2, CDKN2AIP (UniProt Q9NXV6)
T2 sequence: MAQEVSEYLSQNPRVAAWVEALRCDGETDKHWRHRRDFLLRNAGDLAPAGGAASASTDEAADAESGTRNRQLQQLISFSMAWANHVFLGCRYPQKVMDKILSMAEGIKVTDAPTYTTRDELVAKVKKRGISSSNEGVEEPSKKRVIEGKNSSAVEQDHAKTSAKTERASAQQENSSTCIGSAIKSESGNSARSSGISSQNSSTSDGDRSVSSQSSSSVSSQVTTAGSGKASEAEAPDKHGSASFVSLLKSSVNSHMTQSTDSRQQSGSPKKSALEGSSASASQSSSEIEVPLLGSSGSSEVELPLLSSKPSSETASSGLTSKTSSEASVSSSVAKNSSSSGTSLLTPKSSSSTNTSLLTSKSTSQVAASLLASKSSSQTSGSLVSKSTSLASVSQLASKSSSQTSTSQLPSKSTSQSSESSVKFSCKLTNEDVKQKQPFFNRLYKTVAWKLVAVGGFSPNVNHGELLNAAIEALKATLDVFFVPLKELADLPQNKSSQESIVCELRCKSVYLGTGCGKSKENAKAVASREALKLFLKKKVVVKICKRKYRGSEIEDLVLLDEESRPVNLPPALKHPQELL
Outline: as §1

MEX3D = target: T3, MEX3D (UniProt Q86XN8)
T3 sequence: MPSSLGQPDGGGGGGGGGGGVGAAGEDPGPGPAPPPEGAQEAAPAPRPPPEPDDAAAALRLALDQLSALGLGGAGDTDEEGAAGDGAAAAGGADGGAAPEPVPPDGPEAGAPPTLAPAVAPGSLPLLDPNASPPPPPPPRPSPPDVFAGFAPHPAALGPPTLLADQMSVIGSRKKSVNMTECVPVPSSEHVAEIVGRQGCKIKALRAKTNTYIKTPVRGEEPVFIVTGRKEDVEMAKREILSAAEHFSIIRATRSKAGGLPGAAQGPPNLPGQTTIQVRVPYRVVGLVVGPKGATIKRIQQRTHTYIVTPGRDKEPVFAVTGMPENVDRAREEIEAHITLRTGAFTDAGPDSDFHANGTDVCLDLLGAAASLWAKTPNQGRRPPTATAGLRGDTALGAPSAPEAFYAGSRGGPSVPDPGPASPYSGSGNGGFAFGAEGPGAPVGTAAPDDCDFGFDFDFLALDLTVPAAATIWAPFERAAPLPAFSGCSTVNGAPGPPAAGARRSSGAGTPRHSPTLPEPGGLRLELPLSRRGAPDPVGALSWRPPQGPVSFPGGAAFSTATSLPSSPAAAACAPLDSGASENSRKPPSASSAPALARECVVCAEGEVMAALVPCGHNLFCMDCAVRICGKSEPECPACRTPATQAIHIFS
Outline: as §1

MRPS22 = MRPS22 (UniProt P82650)
Outline: as §1

MRPS9 = MRPS9 (UniProt P82933)
Outline: as §1

SKIV2L = SKIV2L (UniProt Q15477)
Outline: as §1

ZCCHC11 = ZCCHC11 (UniProt Q5TAX3)
Outline: as §1

ZCCHC11, sequence (Q5TAX3 whole entry): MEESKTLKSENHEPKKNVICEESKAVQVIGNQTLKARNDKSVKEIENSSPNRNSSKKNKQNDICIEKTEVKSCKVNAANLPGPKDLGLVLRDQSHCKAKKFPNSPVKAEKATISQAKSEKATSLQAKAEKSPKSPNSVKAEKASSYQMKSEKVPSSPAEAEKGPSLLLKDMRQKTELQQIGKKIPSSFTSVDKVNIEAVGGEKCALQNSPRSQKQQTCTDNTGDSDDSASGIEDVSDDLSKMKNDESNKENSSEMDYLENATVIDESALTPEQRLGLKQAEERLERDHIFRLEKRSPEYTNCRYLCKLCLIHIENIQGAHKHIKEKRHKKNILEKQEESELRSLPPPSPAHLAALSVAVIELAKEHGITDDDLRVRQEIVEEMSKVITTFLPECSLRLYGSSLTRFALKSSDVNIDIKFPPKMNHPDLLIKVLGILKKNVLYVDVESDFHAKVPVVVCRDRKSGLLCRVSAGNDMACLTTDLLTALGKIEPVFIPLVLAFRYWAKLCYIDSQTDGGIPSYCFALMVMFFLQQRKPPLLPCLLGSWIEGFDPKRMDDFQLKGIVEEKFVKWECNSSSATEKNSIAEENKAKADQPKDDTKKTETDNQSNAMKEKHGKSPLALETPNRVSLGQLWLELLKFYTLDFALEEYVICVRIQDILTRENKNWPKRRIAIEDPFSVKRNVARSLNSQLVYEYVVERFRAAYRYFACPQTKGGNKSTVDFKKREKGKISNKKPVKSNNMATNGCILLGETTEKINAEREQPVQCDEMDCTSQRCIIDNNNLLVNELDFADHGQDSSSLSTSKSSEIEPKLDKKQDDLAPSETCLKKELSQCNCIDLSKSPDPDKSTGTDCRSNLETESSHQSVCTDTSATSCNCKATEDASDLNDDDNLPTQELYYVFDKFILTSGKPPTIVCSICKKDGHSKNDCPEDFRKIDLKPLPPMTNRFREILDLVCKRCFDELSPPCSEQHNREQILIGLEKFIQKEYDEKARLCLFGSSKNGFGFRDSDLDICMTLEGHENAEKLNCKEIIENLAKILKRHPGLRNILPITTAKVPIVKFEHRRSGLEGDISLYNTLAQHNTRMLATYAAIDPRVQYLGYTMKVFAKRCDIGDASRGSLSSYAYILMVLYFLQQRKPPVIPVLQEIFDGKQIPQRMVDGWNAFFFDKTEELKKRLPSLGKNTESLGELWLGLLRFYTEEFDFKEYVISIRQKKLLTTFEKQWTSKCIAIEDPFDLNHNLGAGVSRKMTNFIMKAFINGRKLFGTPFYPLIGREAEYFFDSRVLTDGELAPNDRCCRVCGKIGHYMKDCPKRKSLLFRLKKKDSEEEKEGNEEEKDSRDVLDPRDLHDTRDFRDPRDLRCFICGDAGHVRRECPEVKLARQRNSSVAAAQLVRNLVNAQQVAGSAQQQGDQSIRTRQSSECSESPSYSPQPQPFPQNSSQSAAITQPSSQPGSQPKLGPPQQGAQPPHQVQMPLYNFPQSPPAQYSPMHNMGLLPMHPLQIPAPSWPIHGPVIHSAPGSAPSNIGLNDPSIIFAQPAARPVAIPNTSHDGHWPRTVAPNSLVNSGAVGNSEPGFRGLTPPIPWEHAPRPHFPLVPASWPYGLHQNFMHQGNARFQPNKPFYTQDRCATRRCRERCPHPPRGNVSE
SRRM2, sequence (Q9UQ35 whole entry): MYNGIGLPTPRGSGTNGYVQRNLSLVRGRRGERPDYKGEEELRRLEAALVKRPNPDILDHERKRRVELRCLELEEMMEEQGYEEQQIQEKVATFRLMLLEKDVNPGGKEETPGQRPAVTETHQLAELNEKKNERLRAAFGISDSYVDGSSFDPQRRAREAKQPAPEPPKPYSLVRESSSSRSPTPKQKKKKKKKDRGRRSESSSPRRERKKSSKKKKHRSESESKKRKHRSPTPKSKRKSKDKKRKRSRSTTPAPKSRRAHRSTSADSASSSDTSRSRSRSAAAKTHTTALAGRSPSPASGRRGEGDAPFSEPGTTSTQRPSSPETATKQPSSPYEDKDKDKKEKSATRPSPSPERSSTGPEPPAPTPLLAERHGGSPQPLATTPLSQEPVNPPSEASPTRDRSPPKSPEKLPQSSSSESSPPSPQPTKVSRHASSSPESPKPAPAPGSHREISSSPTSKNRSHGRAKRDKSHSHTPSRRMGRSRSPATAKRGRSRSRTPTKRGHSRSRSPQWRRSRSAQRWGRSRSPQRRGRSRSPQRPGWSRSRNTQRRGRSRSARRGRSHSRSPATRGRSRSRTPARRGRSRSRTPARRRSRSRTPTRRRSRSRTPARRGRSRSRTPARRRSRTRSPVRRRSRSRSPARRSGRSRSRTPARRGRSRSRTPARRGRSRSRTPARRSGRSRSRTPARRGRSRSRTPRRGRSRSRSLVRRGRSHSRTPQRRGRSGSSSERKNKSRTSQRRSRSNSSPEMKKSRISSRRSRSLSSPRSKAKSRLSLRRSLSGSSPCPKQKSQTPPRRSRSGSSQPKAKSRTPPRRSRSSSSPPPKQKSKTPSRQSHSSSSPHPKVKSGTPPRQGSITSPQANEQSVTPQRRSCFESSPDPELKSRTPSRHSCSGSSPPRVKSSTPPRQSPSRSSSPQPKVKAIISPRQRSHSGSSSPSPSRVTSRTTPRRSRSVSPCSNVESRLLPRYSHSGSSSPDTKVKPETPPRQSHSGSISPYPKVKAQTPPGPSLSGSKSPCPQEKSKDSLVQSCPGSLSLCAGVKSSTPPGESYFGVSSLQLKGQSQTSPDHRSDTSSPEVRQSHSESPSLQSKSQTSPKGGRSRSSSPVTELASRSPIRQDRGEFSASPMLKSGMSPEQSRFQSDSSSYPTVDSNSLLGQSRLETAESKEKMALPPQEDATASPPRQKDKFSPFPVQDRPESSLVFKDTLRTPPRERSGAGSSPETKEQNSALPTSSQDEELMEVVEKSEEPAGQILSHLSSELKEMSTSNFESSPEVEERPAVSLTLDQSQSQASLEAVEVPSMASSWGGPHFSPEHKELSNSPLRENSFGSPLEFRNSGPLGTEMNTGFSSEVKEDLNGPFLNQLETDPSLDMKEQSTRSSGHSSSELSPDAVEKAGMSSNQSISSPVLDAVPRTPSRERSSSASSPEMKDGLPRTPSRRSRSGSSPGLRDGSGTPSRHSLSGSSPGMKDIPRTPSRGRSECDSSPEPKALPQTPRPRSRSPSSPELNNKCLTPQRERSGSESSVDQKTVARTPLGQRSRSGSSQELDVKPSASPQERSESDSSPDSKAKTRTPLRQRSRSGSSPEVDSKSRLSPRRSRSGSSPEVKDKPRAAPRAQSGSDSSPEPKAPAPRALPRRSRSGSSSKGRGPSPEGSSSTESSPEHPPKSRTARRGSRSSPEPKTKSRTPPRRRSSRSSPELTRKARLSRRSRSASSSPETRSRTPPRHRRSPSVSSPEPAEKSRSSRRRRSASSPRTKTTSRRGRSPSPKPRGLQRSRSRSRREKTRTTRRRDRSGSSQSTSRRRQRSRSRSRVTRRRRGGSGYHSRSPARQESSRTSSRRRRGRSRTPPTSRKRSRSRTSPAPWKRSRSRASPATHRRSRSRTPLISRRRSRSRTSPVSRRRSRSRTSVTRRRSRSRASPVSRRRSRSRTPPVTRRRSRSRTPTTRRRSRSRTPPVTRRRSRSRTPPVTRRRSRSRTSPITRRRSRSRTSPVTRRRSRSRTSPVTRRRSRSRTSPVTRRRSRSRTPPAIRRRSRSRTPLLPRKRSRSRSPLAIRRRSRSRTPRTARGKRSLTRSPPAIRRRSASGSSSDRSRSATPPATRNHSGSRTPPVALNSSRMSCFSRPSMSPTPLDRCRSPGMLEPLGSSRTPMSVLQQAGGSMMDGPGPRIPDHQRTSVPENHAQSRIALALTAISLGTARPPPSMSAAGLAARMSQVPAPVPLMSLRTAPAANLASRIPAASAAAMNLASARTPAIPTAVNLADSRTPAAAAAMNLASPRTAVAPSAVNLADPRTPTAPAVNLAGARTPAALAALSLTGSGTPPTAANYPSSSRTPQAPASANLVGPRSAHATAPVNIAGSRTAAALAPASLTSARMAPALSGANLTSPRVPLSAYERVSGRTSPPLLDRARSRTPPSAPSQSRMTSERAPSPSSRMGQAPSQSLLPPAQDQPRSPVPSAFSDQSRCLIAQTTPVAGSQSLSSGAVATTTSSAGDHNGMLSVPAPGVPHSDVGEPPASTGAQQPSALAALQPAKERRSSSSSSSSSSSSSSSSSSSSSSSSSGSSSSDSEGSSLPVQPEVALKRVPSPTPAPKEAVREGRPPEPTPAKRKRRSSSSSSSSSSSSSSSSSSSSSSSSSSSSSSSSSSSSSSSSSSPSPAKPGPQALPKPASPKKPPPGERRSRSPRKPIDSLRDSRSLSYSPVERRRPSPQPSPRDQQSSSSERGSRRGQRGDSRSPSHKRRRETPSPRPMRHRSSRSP

| Sequence | EC50 (RBM14) [nM] | EC50 (SRRM2) [nM] | EC50 (CDKN2AIP) [nM] | EC50 (MEX3D) [nM] | EC50 (MRPS22) [nM] | EC50 (MRPS9) [nM] | EC50 (SKIV2L) [nM] | EC50 (ZCCHC11) [nM] |
| --- | --- | --- | --- | --- | --- | --- | --- | --- |
| AAUAAA | 1980 | 1040 | – | – | – | – | – | – |
| UAUUUAU | – | – | 419 | 714 | 85.6 | 29.4 | 1950 | 108 |
